Laboratory results as given in patent publication US20240408202A1 (HEALTH RESEARCH, published 2024).

B1: FR-B, mouse FRα targeted BiTE (mCD3e scFv 145-2C11 x hFRα scFv MOv19), chimeric BiTE (bispecific antibody)
chain: GEVQLVESGGGLVQPGKSLKLSCEASGFTFSGYGMHWVRQAPGRGLESVAYITSSSINIKYADAVKGRFTVSRDNAKNLLFLQMNILKSEDTAMYYCARFDWDKNYWGQGTMVTVSSGGGGSGGGGSGGGGSDIQMTQSPSSLPASLGDRVTINCQASQDISNYLNWYQQKPGKAPKLLIYYTNKLADGVPSRFSGSGSGRDSSFTISSLESEDIGSYYCQQYYNYPWTFGPGTKLEIKGEAAAKEAAAKEAAAKDIELTQSPASLAVSLGQRAIISCKASQSVSFAGTSLMHWYHQKPGQQPKLLIYRASNLEAGVPTRFSGSGSKTDFTLNIHPVEEEDAATYYCQQSREYPYTFGGGTKLEIKGSTSGSGKSSEGKGQVQLQQSGAELVKPGASVKISCKASGYSFTGYFMNWVKQSHGKSLEWIGRIHPYDGDTFYNQNFKDKATLTVDKSSNTAHMELLSLTSEDFAVYYCTRYDGSRAMDYWGQGTTVTVSSGSGHHHHHH
notes: also called CONT-ENG; Cont-ENG
B2: FR-Bh, human FRα targeted BiTE (hCD3e scFv UCHT1 x hFRα scFv MOv19) (bispecific antibody)
chain: GMDIQMTQTTSSLSASLGDRVTISCRASQDIRNYLNWYQQKPDGTVKLLIYYTSRLHSGVPSKFSGSGSGTDYSLTISNLEQEDIATYFCQQGNTLPWTFAGGTKLEIKGGGGSGGGGSGGGGSGGGGSEVQLQQSGPELVKPGASMKISCKASGYSFTGYTMNWVKQSHGKNLEWMGLINPYKGVSTYNQKFKDKATLTVDKSSSTAYMELLSLTSEDSAVYYCARSGYYGDSDWYFDVWGQGTTLTVFSGEAAAKEAAAKEAAAKDIELTQSPASLAVSLGQRAIISCKASQSVSFAGTSLMHWYHQKPGQQPKLLIYRASNLEAGVPTRFSGSGSKTDFTLNIHPVEEEDAATYYCQQSREYPYTFGGGTKLEIKGSTSGSGKSSEGKGQVQLQQSGAELVKPGASVKISCKASGYSFTGYFMNWVKQSHGKSLEWIGRIHPYDGDTFYNQNFKDKATLTVDKSSNTAHMELLSLTSEDFAVYYCTRYDGSRAMDYWGQGTTVTVSSGSGHHHHHH
notes: also called FRα-specific BiTE

Columns and labels:
[1] = molecular target: T1, human Folate Receptor alpha (FRα) (human, UniProt P15328 25-234); experiment: flow cytometry, BiTE supernatant on IE9-mp1-hFRa cells, anti-His tag detection
T1 construct: whole, on cells; also called hFRα; hFRa
T1 sequence (P15328 25-234): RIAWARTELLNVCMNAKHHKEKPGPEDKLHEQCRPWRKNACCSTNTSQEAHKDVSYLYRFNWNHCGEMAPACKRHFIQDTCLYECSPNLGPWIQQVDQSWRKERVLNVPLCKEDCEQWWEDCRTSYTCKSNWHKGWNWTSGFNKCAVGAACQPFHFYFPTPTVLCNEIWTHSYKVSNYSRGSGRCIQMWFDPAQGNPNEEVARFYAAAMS
Description: (§1) The DNA sequence corresponding to the G(EAAAK)3 (SEQ ID NO:9) linker ([…] (SEQ ID NO:8), followed by Mov19 scFv, 6× His Tag, Furin cleavage peptide, SGSG linker+P2A translational skipping sequence, and monomeric enhanced GFP (eGFP) reporter (to monitor transduction efficiency) was PCR amplified from an existing plasmid to generate overlapping DNA fragments amenable to assembly using NEBuilder (FIG. 7A). FR—B and FR-Bh sequences along with GFP reporter genes were inserted into the previously described retroviral vector¹ using NotI and PacI restriction sites, with DNA fragments assembled using NEBuilder HIFI DNA assembly (New England Biolabs). Plasmid sequences were confirmed by Sanger Sequencing, and retroviruses used to transduce human or mouse cells produced in PG13 or PLAT-E retroviral packaging cells lines, respectively. For murine studies, control T cells were either transduced with a retrovirus expressing a codon-optimized Luciferase (Luc2)-P2A-GFP gene and produced in PLAT-E cells or were Mock transduced. […] In all cases, cell culture supernatant from high-titer retrovirus producing clones was collected and used for viral transduction. For initial testing of BiTEs for antigen-specific binding, 293T cells were retrovirally transduced, followed by collection of 293T cell culture supernatants. […]

mouse CD3ε [2] = molecular target: T2, mouse CD3ε (mouse, UniProt P22646 22-189); experiment: flow cytometry, BiTE supernatant on mouse T cells, anti-His tag detection
T2 construct: whole, on cells; The assay stained mouse T cells; also called mCD3e
T2 sequence (P22646 22-189): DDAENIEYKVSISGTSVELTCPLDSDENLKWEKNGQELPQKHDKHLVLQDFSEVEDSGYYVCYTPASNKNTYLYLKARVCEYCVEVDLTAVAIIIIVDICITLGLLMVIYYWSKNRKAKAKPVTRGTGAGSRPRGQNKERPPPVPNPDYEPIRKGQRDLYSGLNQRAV
Description: as §1

human CD3ε [3] = molecular target: T3, human CD3ε (human, UniProt P07766 23-207); experiment: flow cytometry on human T cells, anti-His tag detection
T3 construct: whole, on cells; The assay stained human T cells; also called hCD3e; CD3e
T3 sequence (P07766 23-207): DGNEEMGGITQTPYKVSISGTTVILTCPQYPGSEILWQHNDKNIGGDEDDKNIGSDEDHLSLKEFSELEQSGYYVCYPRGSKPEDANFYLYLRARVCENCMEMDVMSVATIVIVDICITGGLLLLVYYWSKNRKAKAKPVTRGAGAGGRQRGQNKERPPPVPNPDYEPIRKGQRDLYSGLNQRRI
Description: as §1

human CD3ε [4] = molecular target: T3, human CD3ε; experiment: flow cytometry, BiTE supernatant on human T cells, anti-His tag detection
Description: as §1

[5] = molecular target: T1, human Folate Receptor alpha (FRα); experiment: flow cytometry, BiTE supernatant on FRα+ cancer cells, anti-His tag detection
Description: as §1

mouse CD3ε [6] = molecular target: T2, mouse CD3ε; experiment: flow cytometry on mouse CD8+ T cells, anti-His tag detection; staining control
Description: as §1

| Binder | binding result [1] | binding result (mouse CD3ε [2]) | binding result (human CD3ε [3]) | binding result (human CD3ε [4]) | binding result [5] | binding result (mouse CD3ε [6]) |
| --- | --- | --- | --- | --- | --- | --- |
| B1 | binds | binds | no binding | – | – | – |
| B2 | – | – | – | binds | binds | no binding |
